Experiment: soluble on expression in E. coli; label from the status in PepcDB or PDB records

Which “soluble on expression in E. coli” value does the source give for “APPSSFSKAKKEAVKIYLDYPTSFYCGCDITWKNKKKGIPELESCGYQVRKQEKRASRIEWEHVVPAWQFGHQRQCWQKGGRKNCTRNDKQFKSMEADLHNLVPAIGEVNGDRSNFRFSQWNGSKGAFYGQCAFKVDFKGRVAEPPAQSRGAIARTYLYMNNEYKFNLSKAQRQLMEAWNKQYPVSTWECTRDERIAKIQGNHNQFVYKAC” here?
Its value is “soluble”.

For “MARVVVLGAGIGGLPTAYELKHRLGDRHEVILVSDVDRFTFIPGLVAVALGHNSLERLQVPLETVSRRHGLRWVQGKVQRLAPQEKKIYLPEQALDYDYLVIATGAELAVDLIPGLGIHSHSVCTPAHAVAAQRAWQEFLKEPRDLVVGAAPGASCFGPAYEFLFLAEHALRHHGLRDRVKITFITPEPYVGHLGIGGLANSDQLTRNLIEKRGIETITNAEITAIEPHRILLRDRPVIPFGYSMILPPFRGVPFVRASGLGNEKGFLPLLPTLQHPNYPEIYGVGISVHLPPLEVTPVPVGVPKTGQMTEEMAIAASHNIAVALGELVADPVVPTLDALCFADFGNTGIAYIAAPVIPEPPGENRRLACALQGLWVSWVKAAFERYFLLKMRWGLGVPWFEQWGLRLFFGLSLVRPLQPTVFPEQQPIMKVLEHHHHHH”, which “soluble on expression in E. coli” value is on record?
The value was “not soluble”.

Which “soluble on expression in E. coli” value does the source give for “MVFDPRTLDNPKEISAYRDQRYQGTVRDQETALRTSCTLYVGNLSYYTKEDQVYELFGRAGDVRRVIMGLDRFKKTPCGFCFVEYYTREDAELALQNISNTRMDDRVIRADWDAGFIEGRQYGRGKHGGQVRDEYRKDYDPERGGYNRAIAQKG” here?
The value was “not soluble”.

Which “soluble on expression in E. coli” value does the source give for “MSLGAALSDTNYAVIYDLHSHTTASDGLLTPETLVHRAVEMRVGTLAITDHDTTAAIPAAREEISRSGLALNLIPGVEISTVWENHEIHIVGLNIDIAHPAMRDFLAQQTERRQARGRLIAERLEKAHIPGAWEGALRLANGGAVTRGHFARFLVECGKAATMADVFKKYLARGKTGYVPPQWCTIEQAIDVIHHSGGKAVLAHPGRYDLSAKWLKRLVAHFADHHGDAMEVAQCQQSPNERTQLATLARQHHLWASLGSDFHQPCPWIELGRKLWLPAGVEGVWQTWEQPQISEGHHHHHH” here?
Its value is “soluble”.

With “MSLNAKPKDTVIANARIVLADRVIEQGWLALANGRVAEIGEGRAPAGAEDAGGDLIMPGLIELHTDHLEAHYVPRPKVFWNPVAAVVSYDGQLATSGITTVFDSLRVWREDGAEEVDGRAGVLAAAITTARDADLLRADHFLHLRCEIPMPSVVEEAKELIDRPDVKLMSLMDHTPGQRQFRDEGKLRDYYRGKNGGKTDAQLDELFAKRFEYQKAYAATNMREIVALAHQYNIPLASHDDTTEENVADAVRDRVSVAEFPTTLEAARGLHQAGIDILMGAPNVVRGGSHSGNIAAVDLAREGLLDILSSDYIPSSLLMAALQLPEHVPAISLPAAVRTVTKAPAEAVGLSDRGEIAVGKRADLIRVHIAGSVPVVRSVWREGGRVAEGHHHHHH” as the sequence, how does the “soluble on expression in E. coli” value read?
The value was “soluble”.

With “LWGIFVEQADGHYRVRLRSKIHPINEIAKEHDGGGHPLASGANSYSLEENEIIY” as the sequence, how does the “soluble on expression in E. coli” value read?
The value was “soluble”.

Which “soluble on expression in E. coli” value does the source give for “MSLMIVYKGEKMQFIRVNTLKINPEVLKKRLENKGVVLEKTFLDYAFEVKKSPFSIGSTPEYLFGYYMPQSISSMIPPIVLNPREDDFILDMCAAPGGKTTHLAQLMKNKGTIVAVEISKTRTKALKSNINRMGVLNTIIINADMRKYKDYLLKNEIFFDKILLDAPCSGNIIKDKNRNVSEEDIKYCSLRQKELIDIGIDLLKKDGELVYSTCSMEVEENEEVIKYILQKRNDVELIIIKANEFKGINIKEGYIKGTLRVFPPNEPFFIAKLREGGSHHHHHH” here?
The value was “soluble”.

Which “soluble on expression in E. coli” value does the source give for “MKRSHLENALNYALENSETAYNEMFLECDKQFILESWLNDFDLTKDYNETMHLVFSIKDKPDEETMQGLLHSTWESLKIRLPEYKFALVPHAHQDHAHIHCFINKTNQLTRRRLRFKGHEDCKEFFNELRSEFAYRLNDHLLSEEYLYVNEPKLKELDNIKQQLQDLEKEEKALEQIKSPQDEWDLNKALQSEYLQELKYKNKAKALDIQNNHSTPLKQKISEFKIALFNHKDTSDDEKEQLDIDRIDKRKPVSEHLKNTNKHELYELLGFYQKELDKKQNHSAFKNFAILNGLDRDFERETNGYSVLKKKEMLLNKLEHLDKRLLDKNSHLLLAQ” here?
The value was “not soluble”.

For “MHLNANLKYCCLWKLQSPHSCVPMLVWNCSLHPPSQYCSPLFETAVAENINRLSSHCIKKKSIQRGEKMKQTLRLLGAVTLLGITGCQFNQPPVSSIGAWEKPGADFTEIGKALLECGMPTPYDRDPENDNRSFNQMATIDACMLQAGFRYKYDVGGGMVWKS”, which “soluble on expression in E. coli” value is on record?
Its value is “not soluble”.

With “MQYSMGIDAGGTYTDSIIIRDSDGKVMDSNKALTTYPDLLAGIKNSIDGLDEQYLKDVKMVSVSTTLATNTILEKNGYPVGLILVGDYEVPERMQAEYYTVVKGGHDHHGAELTSLDMEAVEAFVNKVKDRVSAFAVSSYFSIRNPAHELAIKARLKELGFSVVCGHELSLDLGAYERGITAYLNAQLIPIASQFILSIREEIRRRGMDARLLMLKCDGSVVGINEALEKPIESIFSGPAASLVGASHLSGLETCAVIDVGGTSTDVSMLENGLPELCSEGAVVGGWQTKVKAIRMETSAMGGDSHVWVKNMKINIGPRRVIPLCVAAVKYPGFLEILKKGRIPGTMHLEENIQPTKFFIRTGLEASNLGSYEKELFDRIGDTPASLNDIFWETQKTLSPGLLDSLLRKRLIQAIGFTPTDALHVLGEYRGWNTEASIAGAKLLERYTHKDYIESARALEHHHHHH” as the sequence, how does the “soluble on expression in E. coli” value read?
The value was “not soluble”.

For “PKKPPMNGYQKFSQELLSNGELNHLPLKERMVEIGSRWQRISQSQKEHYKKLAEEQQRQYKVHLDLWVKSLSPQDRAAYKEYISNKRK”, which “soluble on expression in E. coli” value is on record?
The value was “soluble”.

Which “soluble on expression in E. coli” value does the source give for “MGEEILTERNQLSRQDASCFRSPRSPLGRTDDAFFELDDDDDLSSPSVPGSPVDPPSISVPLPPKSAPPCPTQPAPLTNGDLYPTILSNGTPIPNGRITPALSTVSVSLIHEARLQQSLSTPCNGSEEEMHNGQVRKESEYRRFKSEGSTAGASLPAAEKTHMDELSPVDQRSTSGTARFLIQQDSVVNPSTKMSNTEQVAMMHTLKTKLSKYQAMMDKAFEEIAKVEDANIIEGCTIVRKLMRKVWNTPKVSADLANALCDYLRDRDYFDKLIKMFISPNTAACDQVRMECGKVLEECTSSANLEYIVNKSYTKKIMIVAMKLNKTPDQQRLSLSLIGNLFKHSNAVSLSLIETDVIDHIILTFKRAPECPDILRHAALALANILLYTCFEGKKKIIQKKIPEWLFFLASQADDVTRYYACIAVCTIVSVKEFEPLVRKSDTMKLVEPFLQVHDPATFARDYHKYAQGNTKEWLERLLPMLQPSRRREARSVAAFHFTLEATIKKEQNKLDVFQEIGAIQALKEVASSPDEVAAKFASEALTVIGEEVPYKLAQQVPGWTCADVQYWVKKIGFEEYVEKFAKQMVDGDLLLQLTENDLKHDVGMISGLHRKRFLRELQTLKVAADYSSVDESNLDNFLMGLSPELSVYTYQMLTNGVNRSLLSSLTDEMMQNACGITNPIHRLKLTQAFETAKHPDDVEVAMLSKQIDVFISYRRSTGNQLASLIKVLLQLRGYRVFIDVDKLYAGKFDSSLLKNIQAAKHFILVLTPNSLDRLLNDDNCEDWVHKELKCAFEHQKNIIPIFDTAFEFPTKEDQIPNDIRMITKYNGVKWVHDYQDACMAKVVRFITGELNRTTPTTKEMPSISRKTTQQRWQTTNTVSRTGPSRSIGGPRMEPPTPTFFSVTPTGSQERATSTRRKIQPSASTTSDRN” here?
The value was “not soluble”.

For “MSLDTEAVLAAVEDAPVRETLDSMVASLKSHEDSEFAGAIATFTGRVRERDDPDDTPTQHLEFERYDTVAEQRMATIREQLCERDGVYDVRMHHRTGVVPAGDDVVHVVVLAGHRGDAFRAVSDGIDRLKDEVPLFKKEVTVDDAFWRHDEGHHHHHH”, which “soluble on expression in E. coli” value is on record?
The value was “soluble”.

With “MGSDKIHHHHHHVSTAVSTPPTRLQCPICGSERFGDFRSRVNVRCSGCGSFERSRLLWLVLSQLELEATGRPFFHVAPEIGIAKLLHARLGERYRAFDFSPDIYAKAKIPVGRLDLCSDLSGMATGSVGGFCHVHVLEHVRCNAALVLQQINRVLAPGGYHVFGVPFWSRQYREDLSSELTDADRLSRFGHEDHVRSFGDQDFTVMFGGAFEGMEAIPLSRLIEVEAAARCNIPPRALTLNNSHSLFVYRKPIP” as the sequence, how does the “soluble on expression in E. coli” value read?
Its value is “not soluble”.

For “MGSDKIHHHHHHMVGTDHVVHSLVACALCFKAVTLPLSSQTQILSGWGRTMPVQAKVVQPASVQQVQELVRQASPASLIARGLGRSYGDAAQLDGASAVEMGAFDQINLDLVKGSVTAGAGVSLNQLLRVIVPAGFFLPVTPGTRNVTIGGAIAADVHGKNHHVDGSFGNHLQRLLLVDGRGELRELTPSGKSSVDEIEQFWATVGGMGLTGIIVEATFSLIPISSSLISVNTARYHNLDELMAAMVASDSNYRYSVAWIDSLNAKGRGVLSCGDHAMAEQLPTSQQADPLVYDPKPLASAPTFLPVGLLNKLTVRAFNEAWFRKAPKQRLGELQTIGAYFHPLDGVQDWNRIYGPAGFLQYQFVVPDNASHLVLYTLEALRKIGTSSFLTVLKRFGPSNPGHLSFPMQGWTLAVDLPAAVPGLFEVLDHLDEHIAAENGRLYLAKDSRQSATILRRTYPRLEEWQQAREKLDPSKVFSSDMAIRTGL”, which “soluble on expression in E. coli” value is on record?
Its value is “not soluble”.

With “MSSDEQKPEVNGYWTSVKNFSSSAATSINNATTSAWNSEFAASTSATVKDFSTSATKSIGEAATSAWNSETASTATSAISEAAKNARSWYDSSSEENEELEPSGHGFRGGIAALSRNASHYVISTVGRSSNILNIFDKTNKSSLGNPRWWIRFDRPHGNVDFHHININKAVTGLKDPHIPLTPTTAKTIGVLGKVAEKANDVAPLLTTAAMIYEAYRVGQEVHKDMNHGTTRNTIKTLAATSGTYSSGSIGAYAGSVIGTSIFPGLGTIFGAVVGGIVGGHFGGHYSHVATENALNHVKWDVVTFVCDGCDEEYTWKKYQEIEGTCCTRFNNKRQDSVDYWFKKLETNHDF” as the sequence, how does the “soluble on expression in E. coli” value read?
Its value is “not soluble”.

Which “soluble on expression in E. coli” value does the source give for “MTHRTKTRPVKVGNLTIGGNNELIIQSMTTTKTHDVEATVAEIKRLEEAGCQVVRVAVPDERAANAIADIKKQINIPLVADIHFDYRLALKAIEGGIDKVRINPGNIGRRHKVEAVVNAAKERGIPIRIGVNAGSLERHILEKYGYPTADGMVESALHHIKILEDLDFHDIIVSMKASDVNLAIEAYEKAARAFDYPLHLGITESGTLFAGTVKSAAGLGAILNKGIGNTLRISLSADPVEEVKVARELLKSFGLASNAATLISCPTCGRIEIDLISIANEVEEYISTLQVPIKVAVLGCAVNGPGEAREADIGIAGARGEGLLFRKGQVVRKVPEEIMVEELKKEIDVIAAEMAAEREKEKETQEQ” here?
The value was “not soluble”.

For “MFTIRKARIDDCGLINQMAGEVFPATYQEILSPGQLDYMMDWMYSPENIRKQMEEEGHVYFIAYEGDEPCGYVSVQQQEENVFHLQKIYVLPHFQGAHCGSFLFREAVRYIKEVHPEPCLMELNVNRNNKALLFYERMGMRKLREGDFPIGNGYYMNDYIMGLDI”, which “soluble on expression in E. coli” value is on record?
The value was “not soluble”.

With “MAHHHHHHMLSPTPLLQRYRLFHPCRENIPLHMNPAKSMFPLINSNNLLAKPRSNWQDFSGRKEFDEDHPLPVVASRLNERTTQHKWSHWDQYLNPQITQSVRDLTPTPEYVGMRSGHNMIKMGWMKIGGSWKYSRGYNDRRRVFARGQWQERKMTPRFMLAPRVSPGGPRNRYEGKLVFSRLKLSKLLWAIDTGRLNPNEVITVYHLHEAGVVAEGEIVWPGFVLISSGVSRVPYPIHIELQNASAESIRLIEEAGGSFTGVYMTHDGLYQELHPEEYPVFPEQEFPERKGLEGLATNPAKRGWLVRWYEDEGKYAHPEAGRRYSHYVRPPTERDFPATVGEYEMVKHHQKWHLNQPGTGTLLPWHSYNTADLLKRSAGRV” as the sequence, how does the “soluble on expression in E. coli” value read?
Its value is “not soluble”.

From the DeepSol protein solubility set
